Assay: soluble on expression in E. coli; label from the status in PepcDB or PDB records

| Sequence | soluble on expression in E. coli |
| --- | --- |
| MKNSLRIPRIIHQTWKTKDVPSPLDQLPQTWKEYLPNWEYILWTDEMNREFVCKHFPDFLEKYDTYPCNIQRADAIRYLLLKVYGGLYVDMDFECLENIEFLLEGSDFIVGKEPDWHAKRFGFEYIICNAFMASTPDNDFINFVCQRLINHSGGKVVNNGFDILDSTGPFLLTHAFNAFPHKEDIRILESKTIYPIGQWEVEKIKNNQIPKEMEERINQAHAIHYFFGTWFGKLEHHHHHH | not soluble |
| MKNSNFPAEVKDLTKRIRTVLMATAQMKEHEKDPEMLVDLQYSLANSYASTPELRRTWLESMAKIHARNGDLSEAAMCYIHIAALIAEYLKRKGYWKVEKICTASLLSEDTHPCDSNSLLTTPSGGSMFSMGWPAFLSITPNIKEEGAMKEDSGMQDTPYNENILVEQLYMCVEFLWKSERYELIADVNKPIIAVFEKQRDFKKLSDLYYDIHRSYLKVAEVVNSEKRLFGRYYRVAFYGQGFFEEEEGKEYIYKEPKLTGLSEISQRLLKLYADKFGADNVKIIQDSNKVNPKDLDPKYAYIQVTYVTPFFEEKEIEDRKTDFEMHHNINRFVFETPFTLSGKKHGGVAEQCKRRTILTTSHLFPYVKKRIQVISQSSTELNPIEVAIDEMSKKVSELNQLCTMEEVDMIRLQLKLQGSVSVKVNAGPMAYARAFLEETNAKKYPDNQVKLLKEIFRQFADACGQALDVNERLIKEDQLEYQEELRSHYKDMLSELSTVMNEQITGRDDLSKRGVDQTCTRVISKATPALPTVSISSSAEV | not soluble |
| MKNTELEQLINDKLNSAAISDYAPNGLQVEGKETVQKIVTGVTASQALLDEAVRLQADAVIVHHGYFWKGESPVIRGMKRRRLKTLLANDINLYGWHLPLDAHPELGNNAQLAALLGITVKGEIEPLVPWGELSMPVPGLELASWIEARLGRKPLWCGDTGPENVQRVAWCTGGGQSFIDSAARFGVDAFITGEVSEQTIHSAREQGLHFYAAGHHATERGGIRALSEWLNENTALDVTFIDIPNPALEHHHHHH | soluble |
| MKNTLKLPLLIGVAGGTSCGKSTIVERIIENLNANAKQSGRQIDIVHLSLHSFYRELSAEEKILAREGKFNFDHPDQINFDLLAETLQNMIDGKTVEIPKYDMITSSMNGTVTVEPAKVIIIEGILLLYDERVRKLLSTKLFVEKNAESRLRNRLATYIRDYHRAPLSIIRQYTEFVKPAFEEFCRPTKKYADVIIPRGADNHVATDLIAKNLQVRFKRQNNALFDFEL | not soluble |
| MKNVVIHQIVTLIFTEDQLRAYWQKQESTVPFAALTDAQYMKLAEDMLAHSSHSQLEQHLLGGRWRTKEEAEGAVLAEDESRDDIHVEIIDTNAPAEPRRRMLIDRVREILCPHCSFTFYVREAASERRDWTCPACGSGFCDLTP | not soluble |
| MKPKAITFDFWGTLFTEGEAFLEKVMPARYEILLDALSEAGHPVDEAEVREAYRQASLAFEEAWKAGEHMPVYERVARIFALLGAPHDPGLIALTARRLEESSLLAPLKPLPGVEVLKDLAKKYPLAIVSDTGMTPGRLLREHLKRQGLDVFQAFSFSDETGFVKPKPEAFRVALEALGVAPEEALHVGDLPQTDIKGAFGTGYPWAVQYVGLREVNGEVRPTAKVKDHRELLSLLT | soluble |
| MKPPPRRRAAPARYLGEVTGPATWSAREKRQLVRLLQARQGQPEPDATELARELRGRSEAEIRVFLQQLKGRVAREAIQKVHPGGLQGPRRREAQPPAPIEVWTDLAEKITGPPEEAVAVAFSQVLTIAATEPVTLLHSKPPKPTQARGKPLLLSAPGGQEDPAPEIPSSAPAAPSSAPRTPDPAPEKPSESSAGPSTEEDFAVDFEKIYKYLSSVSRSGRSPELSAAESAVVLDLLMSLPEELPLLPCTALVEHMTETYLRLTAPQPIPAGGSLGPAAEGVGAGSKAPEETPPATEKAEHSELKSPWQAAGICPLNPFLVPLELLGRAATPAR | soluble |
| MKPRVEILMSTYNGEKFLAEQLDSILAQTHQYFVLTVRDDGSKDGTPDILSRYAATDERITYCVQENRGVVGSFYWLLKNSSPLSNYVAFSDQDDVWLPNKLERALDVLSRYDETLPLLYCSRVEYVSAGLGHLDDSPMMVRPVCLNNALIQNVATGCTVVMNKAARDLLLEREWPPQVLMHDWWSYIVVSAFGKVVYDDFVSIKYRQHGGNVIGGTVSFVSDYRSRIINFLSRRRKGVFGCYDQAYSFWLGYKDELKGESRGIVSQFIESKRSFLSRLNYLTSSQRVYRHRFIDDVLVRLLILSNKYLEHHHHHH | not soluble |
| MKPSWDIFCSVVDNYGDAGVTWRLARQLVAEHDVQVRLWIDDLAAFVRLCPDADPCASQQLREGVSVCRWPADWVSSTVPDVVIEAFACRLPTSYTESMLQRSPRPLWLNLEYLSAEDWVSGCHGLPSPQMNGLKKFFFFPGFADTTGGLLRERNLIGQRQAFQQDKALQQAFLQELNVEPLAGARLISVFAYETPRLDSWLDALASDSRPTHLLVPEGRILADVQRWLGSEGQLHAGTVQASGALTVQVLPFIRQERYDQLLWSCDFNVVRGEDSFVRAQWAGRPMLWHIYQQEEDAHLPKLDAFLALYL | not soluble |
| MKPYQRQFIEFALNKQVLKFGEFTLKSGRKSPYFFNAGLFNTGRDLALLGRFYAEALVDSGIEFDLLFGPAYKGIPIATTTAVALAEHHDKDLPYCFNRKEAKDHGEGGSLVGSALQGRVMLVDDVITAGTAIRESMEIIQAHGATLAGVLISLDRQERGRGEISAIQEVERDYGCKVISIITLKDLIAYLEEKPDMAEHLAAVRAYREEFGV | soluble |
| MKQAIGFIDSGVGGLTVVREVLKQLPHEQVYYLGDTARCPYGPRDKEEVAKFTWEMTNFLVDRGIKMLVIACNTATAAALYDIREKLDIPVIGVIQPGSRAALKATRNNKIGVLGTLGTVESMAYPTALKGLNRRVEVDSLACPKFVSVVESGEYKSAIAKKVVAESLLPLKSTKIDTVILGCTHYPLLKPIIENFMGDGVAVINSGEETASEVSALLDYHNLLDATDEEIEHRFFTTGSTQIFKDIAKDWLNMPDMTVEHIKLGK | not soluble |
| MKQCAHTKVWQTIVAEAREQAEQEPMLASFYHATIIKHDSLKAALSYILANRLNTASMPAMAVREVIEEAFAADPSISEAAACDICATVNRDPAVSMYSMPLLYLKGYHALQGYRVANWLWRQGRKALATYFQNQISVACQVDIHPAARIGRGIMLDHATGIVIGETAVVEDDVSILQDVTLGGTGKECGDRHPKIREGVMIGAGAKILGNIEVGEGAKIGSGSVVLQAVPPHTTVAGVPARIVGRPQSDKPSLDMDQQFNGRSQTFIGGDGI | not soluble |
| MKQESASQSTPPPSLSPAPSSAQPFWGDGDPQALWIFGYGSLVWKPDFAYSDSRVGFVRGYSRRFWQGDTFHRGSDKMPGRVVTLLEDHEGCTWGVAYQVRGEQVNEALKYLNVREAVLGGYDTKEVTFYPQDTPDQPLTALAYVATPQNPGYLGPAPEEVIATQILACRGFSGHNLEYLLRLADFMQLCGPQAQDEHLEAIVDAVGTLLPCSYLPEQPLALT | soluble |
| MKQFKIRSVLQSIALLVLAGTAAAEPKPEKITHGRFEQIPVLRPDGEPQRVVIWFSDAGHVDQRTRQAEILRQDGAMVALVDTTHLYKVLAADSNHCTFSVGDVENLSRYLQAYYRDKTYRLPLLVGDGDGSGLVYAVAAQATENILAGVVSDGLCPVVVPTQAVCGAGVASDQHLKPAPVAAPLLVMTVSSAHCPAQLTSGFVRKVALGREIRLAASADLLPRLRAALRVLGAQKGVSLPPPPADLDGLPVVEVPSKAQKKSDTFAIFVSGDGGWAEIDKKVAGHLADADIPVVGLDSLRYFWSERTPEGFAKDLDRIARFYAHHWKRNRLLLVGFSQGADVLPAAINKLSPNTRQIIRMTALLSLGKYAHYEFHVSNWISTDDEGIPIAPDMVKLRSTRTVCIYGVDDQETLCPSLPQQNRRVALPGTHHFNGDYETVAKTILAQMEAAPLEHHHHHH | not soluble |
| MKQGKFSVFLILLLMLTLVVAPKGKAEAASSGWQPVSGISGCKIRVITDAYTYTKSATSIDAYAETNGKCGKLNYKSFGVSIVEGGDIGPQYSGYFSSRTPTKKFYFSKLPKPTGTPWAVGLSVYKGKAKGAAFVYINPQKRLEHHHHHH | not soluble |
| MKQVKITTTSDLINGGCNACPNVKCTNYLVHVEDETIALETLTVADLVTLLALKEGFRQKLVMEMFEEYTVFERETHQVVFKEEETRILFQSKKQTIQSTLLCKEPQQVFQETQQILHQLFELEPFEFELVEETDE | not soluble |
| MKQYGFYVDSSRCSGCKTCQVSCKDNKDLDVGPKLRRVYEYGGGSWVKEGESWHHDTFTYYLSIACNHCDEPVCVSGCPTGAMHKRKEDGLVVVDDSVCVGCRYCEMRCPYGAPQFDTQANVMRKCDGCLDRLENNLRPICVDSCPQRALDFGPVDELRAKYGTENQIAPLPSASFTHPNLIIKPHPKARPTGDTEGAIMNIREVRHA | not soluble |
| MKRADDFQQRRAHLANLSDEELQTRFWEMAEKIVDPLLDLGKKNTTPSIERSVLLRMGFSSLEAKAIVDKTMDRGLMGKGAGHIVYKIAKEKNISVREAGLALSEGKYWDDAIQIFKGGVK | soluble |
| MKRIADEELVREERAEESTQKWLQDAKFQEILGADSSHKSLFVLLSHPDGSQGILLANKSPFSEEKSDIEKLLATAQLQEISRNDIFGSYNIEIDPKLNLLKSQLIYPINDRLIAKYRQEEKFVIRETPELYETVTRPYIEKYQLNLNWVYNCLEKRSEVDKIVFEDPDNENGFVLLQDIKWDGKTLENLYVLAICHRHGLKSVRDLTGDDLEMLYNMRDKSLEAINQKYGLKTDQIKCYFHYQPSFYHLHVHFINLKYDAPASTTMSAILLDDVINNLELNPEHYKKSTLTFTRKNGDKLMEMFREALKN | not soluble |
| MKRSIAPLLVCPACLPKERPLELTATAEADGDITAGHLSCKGCRRRFPIRDGIAVLLPDPDTGPSGGQWKYEEQGTLATYLWSHFADLAGDPEAGDAYASWASALAGNAETSLDAGCAVGRLTFELGQRSGLAVGFDLSLTFIRAARQLARERQIRFSLPREGNLRDEFRLTLPDCWRTDEVEFVVADALAIPFARETFDRTASLNLIDRVSYPLAHLYEMNRVARLSGASFLLSDPFSWSTANAPEEKWLGGTESGPYSGRGMDNVKAILGGKEAIIAPPWTVAREGSVWWKIRSHRNHFELIRSEFLVAERLEHHHHHH | not soluble |
| MKRSLLACAMSCMMLTVSAHSDFDVRNVDSQFHVPEIGGGVGLIDQQKERQIGEKVFREIQKQMPVVHDPWLQEQYSQIFLRVLAQTSITQPVGLVIIKDPQINAFAVPGGLFALNTGLIANARNIDEVAGVMAHEVAHVTQRHYSRSQEAFKGQGLLALAGILVGAAVATTSNADVGSAVMLGTQAALMDRQLTYSRNQEREADRIGMQYMYAAGYNPQSMADFFETMQRSRVGSSFMPDFWMTHPLTTERMSEARLRANQLPKVETKLYDPNFQLLKWYTLAVSDPSSEKILENVVKQGNKEAQLALGAYYVGQGDFVKAQKQLDDIKSQFNENTLYCLIQTNIYLGQNELDQAYSSIVNIQRAMPESRALAYKLAEVMILQGKAGDTLQLIQPFVNRNPRDLEGWQLMQQASSIDRISPVQTVNTLRYRAEVQFWSGNEENAIKSLLHAQRLAKGNESLSARIDSRLKQMQSDYTMKI | not soluble |
| MKRTPLFEKHVELGAKMVDFAGWEMPLYYTSIFEEVMAVRKSVGMFDVSHMGEFLVKGPEAVSFIDFLITNDFSSLPDGKAIYSVMCNENGGIIDDLVVYKVSPDEALMVVNAANIEKDFNWIKSHSKNFDVEVSNISDTTALIAFQGPKAQETLQELVEDGLEEIAYYSFRKSIVAGVETLVSRTGYTGEDGFELMLEAKNAPKVWDALMNLLRKIDGRPAGLGARDVCRLEATYLLYGQDMDENTNPFEVGLSWVVKLNKDFVGKEALLKAKEKVERKLVALELSGKRIARKGYEVLKNGERVGEITSGNFSPTLGKSIALALVSKSVKIGDQLGVVFPGGKLVEALVVKKPFYRGSVRREV | soluble |

From the DeepSol protein solubility set
